{"source": "paper PMC5075240", "origin": "cited, not measured here", "target": "calmodulin (UniProt P0DP23)", "note": "pKd: −log10 of the molar value."}
{"substance": "TRPV1 C-terminal fragment 767-801 (from UniProt O35433)", "values": [{"measurement": "pKd", "value": 7.30}]}
